# B1: Beta-secretase 1 (Homo sapiens), P56817 (parent)
# chain: MAQALPWLLLWMGAGVLPAHGTQHGIRLPLRSGLGGAPLGLRLPRETDEEPEEPGRRGSFVEMVDNLRGKSGQGYYVEMTVGSPPQTLNILVDTGSSNFAVGAAPHPFLHRYYQRQLSSTYRDLRKGVYVPYTQGKWEGELGTDLVSIPHGPNVTVRANIAAITESDKFFINGSNWEGILGLAYAEIARPDDSLEPFFDSLVKQTHVPNLFSLQLCGAGFPLNQSEVLASVGGSMIIGGIDHSLYTGSLWYTPIRREWYYEVIIVRVEINGQDLKMDCKEYNYDKSIVDSGTTNLRLPKKVFEAAVKSIKAASSTEKFPDGFWLGEQLVCWQAGTTPWNIFPVISLYLMGEVTNQSFRITILPQQYLRPVEDVATSQDDCYKFAISQSSTGTVMGAVIMEGFYVVFDRARKRIGFAVSACHVHDEFRTAAVEGPFVTLDMEDCGYNIPQTDESTLMTIAYVMAAICALFMLPLCLMVCQWRCLRCLRQQHDDFADDISLLK
# partner: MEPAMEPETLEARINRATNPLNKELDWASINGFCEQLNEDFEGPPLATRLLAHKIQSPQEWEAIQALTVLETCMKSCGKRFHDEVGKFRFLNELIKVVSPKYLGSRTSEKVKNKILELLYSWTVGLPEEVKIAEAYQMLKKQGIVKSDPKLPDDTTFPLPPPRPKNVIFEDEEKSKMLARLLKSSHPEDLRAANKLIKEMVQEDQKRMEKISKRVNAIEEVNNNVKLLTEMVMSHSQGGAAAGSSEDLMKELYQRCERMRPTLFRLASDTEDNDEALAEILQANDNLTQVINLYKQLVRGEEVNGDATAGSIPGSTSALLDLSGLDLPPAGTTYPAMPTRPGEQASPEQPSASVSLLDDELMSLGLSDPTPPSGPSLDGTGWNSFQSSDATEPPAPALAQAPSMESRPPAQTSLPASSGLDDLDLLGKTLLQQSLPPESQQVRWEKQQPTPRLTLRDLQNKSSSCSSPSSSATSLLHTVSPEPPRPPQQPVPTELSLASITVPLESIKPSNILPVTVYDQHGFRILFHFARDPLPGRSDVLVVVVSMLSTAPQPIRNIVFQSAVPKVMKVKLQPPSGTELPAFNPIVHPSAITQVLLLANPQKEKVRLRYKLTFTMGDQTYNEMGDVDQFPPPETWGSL
# Variants of: B1
# Settings: with gga1_human GGA1, Q9UJY5
row,Variant,effect of a mutation on the interaction
1,S498D,with no effect
2,S498A,decreasing interaction strength

# Reference: IntAct's records for PubMed 15466887
